{
  "source": "patent US20210002621",
  "about": "“CTLA4 HOMING ENDONUCLEASE VARIANTS, COMPOSITIONS, AND METHODS OF USE” (bluebird bio, Inc., published 2021)",
  "key": {"[1]": {"target": "T1, CTLA4.B3.B6 I-OnuI HE variant (Ophiostoma novo-ulmi)", "T1 chain": "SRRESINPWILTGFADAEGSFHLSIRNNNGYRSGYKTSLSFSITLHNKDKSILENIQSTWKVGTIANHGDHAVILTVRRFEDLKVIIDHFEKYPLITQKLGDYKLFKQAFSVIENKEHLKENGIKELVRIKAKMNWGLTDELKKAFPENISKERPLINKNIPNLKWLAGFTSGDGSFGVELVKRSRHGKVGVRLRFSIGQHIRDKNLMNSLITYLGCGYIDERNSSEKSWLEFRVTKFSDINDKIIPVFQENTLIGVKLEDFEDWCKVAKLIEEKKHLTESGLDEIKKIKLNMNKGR", "test": "cell_activity; chromosomal iRFP reporter in HEK 293T", "description": "(§1) The activity of reprogrammed I-OnuI HEs that target exon 2 of the CTLA4 gene was measured using a chromosomally integrated fluorescent reporter system (Certo et. al., 2011). Fully reprogrammed I-OnuI HEs that bind and cleave the CTLA4 target sequence (SEQ ID NO: 13) were cloned into mammalian expression plasmids and then individually transfected into a HEK 293T […] cell line that contained the CTLA4 target sequence upstream of an out-of-frame gene encoding the fluorescent iRFP protein. Cleavage of the embedded target site by the HE and the accumulation of indels following DNA repair via the non-homologous end joining (NHEJ) pathway results in approximately one out of three repaired loci placing the fluorescent reporter gene back “in-frame”. The percentage of iRFP fluorescing HEK 293T cells is therefore used a readout of endonuclease activity at the chromosomally embedded target sequence. […] FIG. 3 (left panel).\n(§2) A secondary I-OnuI variant library was generated by performing random mutagenesis on the CTLA4.B3 HE variant (SEQ ID NO: 6). Display-based flow sorting was performed under more stringent cleavage conditions to isolate variants with improved catalytic efficiency. […] FIG. 3 (middle panel). […] FIG. 3 (right panel)."}, "[2]": {"target": "T2, CTLA4.B3.B6.D5 I-OnuI HE variant (Ophiostoma novo-ulmi)", "T2 chain": "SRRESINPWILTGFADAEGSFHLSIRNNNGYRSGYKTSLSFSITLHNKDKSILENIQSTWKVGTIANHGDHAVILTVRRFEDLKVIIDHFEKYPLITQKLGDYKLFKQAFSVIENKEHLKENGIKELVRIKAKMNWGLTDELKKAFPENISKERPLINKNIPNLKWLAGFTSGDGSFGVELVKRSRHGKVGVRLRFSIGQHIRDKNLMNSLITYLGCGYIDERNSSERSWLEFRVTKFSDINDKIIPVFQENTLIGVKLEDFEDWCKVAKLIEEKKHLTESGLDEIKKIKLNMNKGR", "test": "cell_activity; chromosomal iRFP reporter in HEK 293T", "description": "as §1, §2"}, "[3]": {"target": "T2, CTLA4.B3.B6.D5 I-OnuI HE variant", "test": "flow; sub-nanomolar affinity; yeast surface affinity titration, value only in figure", "details": "tags: yeast surface display"}},
  "data": [
    {"binder": "CTLA4 exon 2 HE target site (dsDNA) DNA 1: TGGAGATGCATACTCACACACA DNA 2: TGTGTGTGAGTATGCATCTCCA", "values": [
      {"measurement": "activity", "setting": "[1]", "result": "~3", "unit": "fold vs CTLA4.B3"},
      {"measurement": "activity", "setting": "[2]", "result": "~2", "unit": "fold vs CTLA4.B3.B6"},
      {"measurement": "Kd", "setting": "[3]", "result": "< 1", "unit": "nM"}
    ]}
  ]
}
